Where no end group is shown, it is not given here. [ ]: non-standard residue; d: D form. Cit = NC(=O)NCCC[C@H](N)C(=O)O
What was measured:
Assay in all cases: fluorescence polarisation; competition: serial dilution of peptide from 500 μM against 20 nM TAMRA-HA for 100 nM HLA-DRB1 protein with 20 nM HLA-DM; 100 mM trisodium citrate pH 5.4, 50 mM NaCl, 5 mM EDTA; 37 °C, read after 24, 48 and 72 h
[1] = target: HLA-DRB1*04:04 protein (human)
[2] = target: HLA-DRB1*04:01 protein (HLA-DRA*01:01/HLA-DRB1*04:01) (human)
[3] = target: HLA-DRB1*04:05 protein (human)
[4] = target: HLA-DRB1*01:01 protein (human)
[5] = target: HLA-DRB1*14:02 protein (human)

IC50 [1]: > 300 µM | IC50 [2]: 1100 nM | fold weaker affinity against HLA-DRB1*01:01, *04:01 and *14:02 [3]: > 4 fold | IC50 [4]: 800 nM | IC50 [5]: 1300 nM
Binder: D[Cit]Y[Cit]LNYSLPTG [TNC1014,1016cit peptide]

From article PMC12269843, “The molecular basis of T cell receptor recognition of citrullinated tenascin-C presented by HLA-DR4” (The Journal of Biological Chemistry, 2025)
